{"source": "patent US20080026996A1", "about": "“Selective Vpac2 Receptor Reptide Agonists” (ELI LILLY AND COMPANY, priority 2004, published 2008)", "binders": {"B1": {"name": "P161 (peptide)", "peptide": "Hexanoyl-HSDAVFTLNYTRLRKQVAAKKYLQSIKNKRYGGPSSGAPPPS"}, "B2": {"name": "P179 (peptide)", "peptide": "Hexanoyl-HSDAVFTDNYTRLRLQVAAKKYLQSIKNKRYGGPSSGAPPPS"}, "B3": {"name": "P203 (peptide)", "peptide": "Hexanoyl-HSDAVFTDNYTRLRKQVAAKKYLQSIKNKRFGGPSSGAPPPS"}, "B4": {"name": "P290 (peptide)", "peptide": "Hexanoyl-HSDAVFTDNYTRLRKQLAAKKYLQSIKNKRYGGPSSGAPPPS"}, "B5": {"name": "P181 (peptide)", "peptide": "Hexanoyl-HSDAVFTDNYTRLRKQVAAAKYLQSIKNKRYGGPSSGAPPPS"}, "B6": {"name": "P185 (peptide)", "peptide": "Hexanoyl-HSDAVFTDNYTRLRKQVAAKLYLQSIKNKRYGGPSSGAPPPS"}, "B7": {"name": "P171 (peptide)", "peptide": "Hexanoyl-HSDAVFTDNYTRLKKQVAAKKYLQSIKNKRYGGPSSGAPPPS"}, "B8": {"name": "P186 (peptide)", "peptide": "Hexanoyl-HSDAVFTDNYTRLRKQVAAKFYLQSIKNKRYGGPSSGAPPPS"}, "B9": {"name": "P197 (peptide)", "peptide": "Hexanoyl-HSDAVFTDNYTRLLAKLAAQKYLQSIKNKRYGGPSSGAPPPS"}, "B10": {"name": "P252 (peptide)", "peptide": "Hexanoyl-HSDAVFTDNYTRLQKQVAAQKYLQSIKNKRYGGPSSGAPPPS"}, "B11": {"name": "P163 (peptide)", "peptide": "Hexanoyl-HSDAVFTYNYTRLRKQVAAKKYLQSIKNKRYGGPSSGAPPPS"}, "B12": {"name": "P165 (peptide)", "peptide": "Hexanoyl-HSDAVFTEEYTRLQKQVAAKQYLQSIKNKRYGGPSSGAPPPS"}, "B13": {"name": "P231 (peptide)", "peptide": "Hexanoyl-HSDAVFTDNYTRLRKQVAAKKYFQSIKNKRYGGPSSGAPPPS"}, "B14": {"name": "P289 (peptide)", "peptide": "Hexanoyl-HSDALFTDNYTRLRKQVAAKKYLQSIKNKRYGGPSSGAPPPS"}, "B15": {"name": "P184 (peptide)", "peptide": "Hexanoyl-HSDAVFTDNYTRLRKQVAAKAYLQSIKNKRYGGPSSGAPPPS"}, "B16": {"name": "P162 (peptide)", "peptide": "Hexanoyl-HSDAVFTRNYTRLRKQVAAKKYLQSIKNKRYGGPSSGAPPPS"}, "B17": {"name": "P235 (peptide)", "peptide": "Hexanoyl-HSDAVFTDNYTRLRKQVAAKKYAQSIKNKRYGGPSSGAPPPS"}, "B18": {"name": "P196 (peptide)", "peptide": "Hexanoyl-HSDAVFTDNYTRLLAKVALQKYLQSIKNKRYGGPSSGAPPPS"}, "B19": {"name": "P195 (peptide)", "peptide": "Hexanoyl-HSDAVFTDNYTRLLAQLALQKYLQSIKNKRYGGPSSGAPPPS"}, "B20": {"name": "P182 (peptide)", "peptide": "Hexanoyl-HSDAVFTDNYTRLRKQVAAKRYLQSIKNKRYGGPSSGAPPPS"}, "B21": {"name": "P192 (peptide)", "peptide": "Hexanoyl-HSDAVFTDQYTRLLAKLALQKYLQSIKQKRYGGPSSGAPPPS"}, "B22": {"name": "P175 (peptide)", "peptide": "Hexanoyl-HSDAVFTDNYTRLFKQVAAKKYLQSIKNKRYGGPSSGAPPPS"}, "B23": {"name": "P173 (peptide)", "peptide": "Hexanoyl-HSDAVFTDNYTRLAKQVAAKKYLQSIKNKRYGGPSSGAPPPS"}, "B24": {"name": "P224 (peptide)", "peptide": "Hexanoyl-HSEAVFTDNYTRLRKQVAAKKYLQSIKNKRYGGPSSGAPPPS"}, "B25": {"name": "P233 (peptide)", "peptide": "Hexanoyl-HSDAVFTDNYTRLRKQVAAKKYIQSIKNKRYGGPSSGAPPPS"}, "B26": {"name": "P234 (peptide)", "peptide": "Hexanoyl-HSDAVFTDNYTRLRKQVAAKKYVQSIKNKRYGGPSSGAPPPS"}, "B27": {"name": "P275 (peptide)", "peptide": "Hexanoyl-HSDAVFTDNYTRLRKQVAGKKYLQSIKNKRYGGPSSGAPPPS"}, "B28": {"name": "P174 (peptide)", "peptide": "Hexanoyl-HSDAVFTDNYTRLLKQVAAKKYLQSIKNKRYGGPSSGAPPPS"}, "B29": {"name": "P183 (peptide)", "peptide": "Hexanoyl-HSDAVFTDNYTRLRKQVAAKQYLQSIKNKRYGGPSSGAPPPS"}, "B30": {"name": "P253 (peptide)", "peptide": "Hexanoyl-HSDAVFTDNYTRLQKQVAAKQYLQSIKNKRYGGPSSGAPPPS"}, "B31": {"name": "P164 (peptide)", "peptide": "Hexanoyl-HSDAVFTDNYTRLLAKLALQKYLQSIKNKRYGGPSSGAPPPC"}, "B32": {"name": "P176 (peptide)", "peptide": "Hexanoyl-HSDAVFTDNYTRLRRQVAAKKYLQSIKNKRYGGPSSGAPPPS"}, "B33": {"name": "P230 (peptide)", "peptide": "Hexanoyl-HSDAVFTDNYTRLRKQVAAKKYWQSIKNKRYGGPSSGAPPPS"}, "B34": {"name": "P180 (peptide)", "peptide": "Hexanoyl-HSDAVFTDNYTRLRFQVAAKKYLQSIKNKRYGGPSSGAPPPS"}, "B35": {"name": "P221 (peptide)", "peptide": "Hexanoyl-HSDIVFTDNYTRLRKQVAAKKYLQSIKNKRYGGPSSGAPPPS"}, "B36": {"name": "P199 (peptide)", "peptide": "[Met(O)]HSDAVFTDNYTRLRKQVAAKKYLQSIKNKRYGGPSSGAPPPS", "modifications": "ends and bridges not checked"}, "B37": {"name": "P211 (peptide)", "peptide": "Hexanoyl-HSDA[NMeV]FTDNYTRLRKQVAAKKYLQSIKNKRYGGPSSGAPPPS"}, "B38": {"name": "P209 (peptide)", "peptide": "Hexanoyl-HSD[Aib]VFTDNYTRLRKQVAAKKYLQSIKNKRYGGPSSGAPPPS", "modifications": "ends and bridges not checked"}, "B39": {"name": "P223 (peptide)", "peptide": "Hexanoyl-HSDLVFTDNYTRLRKQVAAKKYLQSIKNKRYGGPSSGAPPPS"}, "B40": {"name": "P205 (peptide)", "peptide": "[Mpa]HSDAVFTDNYTRLLAKLALQKYLQSIKNKRYGGPSSGAPPPS"}, "B41": {"name": "P210 (peptide)", "peptide": "Hexanoyl-HSDA[dV]FTDNYTRLRKQVAAKKYLQSIKNKRYGGPSSGAPPPS"}, "B42": {"name": "P194 (peptide)", "peptide": "Hexanoyl-HSDAVFTDNYTRLRK(Ac)QVAAKK(Ac)YLQSIKNKRYGGPSSGAPPPS"}, "B43": {"name": "P228 (peptide)", "peptide": "Hexanoyl-HSDAVFTDNYTRLRKQVAAKK[Aib]LQSIKNKRYGGPSSGAPPPS", "modifications": "ends and bridges not checked"}, "B44": {"name": "P212 (peptide)", "peptide": "Hexanoyl-HSDA[Aib]FTDNYTRLRKQVAAKKYLQSIKNKRYGGPSSGAPPPS", "modifications": "ends and bridges not checked"}, "B45": {"name": "P220 (peptide)", "peptide": "Hexanoyl-HSDAVFTDQYTRLRRQVAARKYLQSIRQGGPSSGAPPPS"}, "B46": {"name": "P208 (peptide)", "peptide": "Hexanoyl-HSD[NMeA]VFTDNYTRLRKQVAAKKYLQSIKNKRYGGPSSGAPPPS"}, "B47": {"name": "P207 (peptide)", "peptide": "Hexanoyl-HSD[dA]VFTDNYTRLRKQVAAKKYLQSIKNKRYGGPSSGAPPPS"}}, "note": "Where no end group is shown, it is not given here. [ ]: non-standard residue; d: D form. The star is where a group is joined. Met(O) = CS(=O)CC[C@H](N)C(=O)O; NMeV = CN[C@H](C(=O)O)C(C)C; NMeA = CN[C@@H](C)C(=O)O; Hexanoyl = CCCCCC(=O)*; Aib = CC(C)(N)C(=O)O; Mpa = O=C(O)CCS", "data": [{"target": "T1, human VPAC2 receptor (human, UniProt P41587 24-438)", "T1 sequence (looked up)": "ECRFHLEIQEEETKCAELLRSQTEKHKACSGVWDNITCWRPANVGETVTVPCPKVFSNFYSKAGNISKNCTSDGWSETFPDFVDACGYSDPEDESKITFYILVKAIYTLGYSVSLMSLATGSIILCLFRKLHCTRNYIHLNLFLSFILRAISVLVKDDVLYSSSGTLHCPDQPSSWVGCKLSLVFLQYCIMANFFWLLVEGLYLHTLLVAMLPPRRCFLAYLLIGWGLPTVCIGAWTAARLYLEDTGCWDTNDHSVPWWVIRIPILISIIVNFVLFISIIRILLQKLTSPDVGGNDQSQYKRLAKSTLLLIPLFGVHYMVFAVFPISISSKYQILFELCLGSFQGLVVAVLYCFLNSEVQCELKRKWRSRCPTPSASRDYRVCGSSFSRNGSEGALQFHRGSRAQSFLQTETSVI", "experiment": "cell-based or functional assay", "units": {"EC50 cAMP, Alpha Screen": "nM"}, "values": [{"binder": "B1", "EC50 cAMP, Alpha Screen": 4}, {"binder": "B2", "EC50 cAMP, Alpha Screen": 0.24}, {"binder": "B3", "EC50 cAMP, Alpha Screen": 0.14}, {"binder": "B4", "EC50 cAMP, Alpha Screen": 0.22}, {"binder": "B5", "EC50 cAMP, Alpha Screen": 0.13}, {"binder": "B6", "EC50 cAMP, Alpha Screen": 0.18}, {"binder": "B7", "EC50 cAMP, Alpha Screen": 0.82}, {"binder": "B8", "EC50 cAMP, Alpha Screen": 0.15}, {"binder": "B9", "EC50 cAMP, Alpha Screen": 0.09}, {"binder": "B10", "EC50 cAMP, Alpha Screen": 0.26}, {"binder": "B11", "EC50 cAMP, Alpha Screen": 5.53}, {"binder": "B12", "EC50 cAMP, Alpha Screen": 0.94}, {"binder": "B13", "EC50 cAMP, Alpha Screen": 0.26}, {"binder": "B14", "EC50 cAMP, Alpha Screen": 0.16}, {"binder": "B15", "EC50 cAMP, Alpha Screen": 0.22}, {"binder": "B16", "EC50 cAMP, Alpha Screen": 11.1}, {"binder": "B17", "EC50 cAMP, Alpha Screen": 0.82}, {"binder": "B18", "EC50 cAMP, Alpha Screen": 0.23}, {"binder": "B19", "EC50 cAMP, Alpha Screen": 0.25}, {"binder": "B20", "EC50 cAMP, Alpha Screen": 0.29}, {"binder": "B21", "EC50 cAMP, Alpha Screen": 0.18}, {"binder": "B22", "EC50 cAMP, Alpha Screen": 0.68}, {"binder": "B23", "EC50 cAMP, Alpha Screen": 0.25}, {"binder": "B24", "EC50 cAMP, Alpha Screen": 0.14}, {"binder": "B25", "EC50 cAMP, Alpha Screen": 0.11}, {"binder": "B26", "EC50 cAMP, Alpha Screen": 0.16}, {"binder": "B27", "EC50 cAMP, Alpha Screen": 0.32}, {"binder": "B28", "EC50 cAMP, Alpha Screen": 0.26}, {"binder": "B29", "EC50 cAMP, Alpha Screen": 0.14}, {"binder": "B30", "EC50 cAMP, Alpha Screen": 0.46}, {"binder": "B31", "EC50 cAMP, Alpha Screen": 0.11}, {"binder": "B32", "EC50 cAMP, Alpha Screen": 0.28}, {"binder": "B33", "EC50 cAMP, Alpha Screen": 0.3}, {"binder": "B34", "EC50 cAMP, Alpha Screen": 1.04}, {"binder": "B35", "EC50 cAMP, Alpha Screen": 1.98}, {"binder": "B36", "EC50 cAMP, Alpha Screen": 29.6}, {"binder": "B37", "EC50 cAMP, Alpha Screen": 989}, {"binder": "B38", "EC50 cAMP, Alpha Screen": 0.1}, {"binder": "B39", "EC50 cAMP, Alpha Screen": 5.82}, {"binder": "B40", "EC50 cAMP, Alpha Screen": 1.14}, {"binder": "B41", "EC50 cAMP, Alpha Screen": 0.91}, {"binder": "B42", "EC50 cAMP, Alpha Screen": 0.13}, {"binder": "B43", "EC50 cAMP, Alpha Screen": 3.48}, {"binder": "B44", "EC50 cAMP, Alpha Screen": 0.12}, {"binder": "B45", "EC50 cAMP, Alpha Screen": 0.12}, {"binder": "B46", "EC50 cAMP, Alpha Screen": 50.1}, {"binder": "B47", "EC50 cAMP, Alpha Screen": 0.86}]}]}
